Laboratory results reported in publication PMC11506546.

Columns and labels:
[1] = biological target: rabbit skeletal-muscle F-actin (rabbit) (UniProt P68135); experiment: co-sedimentation; 0.2-3.5 µM tropomyosin with 3 µM F-actin in T buffer (150 mM NaCl, 10 mM Tris-HCl pH 7.5, 2 mM MgCl2), 50 µL, 1 h at room temperature; 670,000 x g, 20 °C, 30 min; SDS-PAGE densitometry; Hill equation fit; apparent Kd
[2] = biological target: α-actin filament (muscle actin, polymerized from G-actin) (UniProt P68135); experiment: TIRF microscopy of tropomyosin-decorated single actin filaments; control experiments: the same Tpm isoform labeled with AF488 and with AF568 (0.015 µM of each) mixed with 1 µM G-actin in D buffer, polymerized with 50 mM NaCl for 5-10 min, 10% PEG 300; decorated filaments captured on PLL-PEG/BSA coverslips in microfluidic channels, washed with TIR50 buffer
[3] = biological target: β-actin filament (cytoskeletal actin, polymerized from G-actin) (UniProt P60709); experiment: as above

Tpm1.6 (Tm2), unlabeled recombinant human cytoskeletal tropomyosin (natural protein; modification not given), sequence (chain, as listed by the source): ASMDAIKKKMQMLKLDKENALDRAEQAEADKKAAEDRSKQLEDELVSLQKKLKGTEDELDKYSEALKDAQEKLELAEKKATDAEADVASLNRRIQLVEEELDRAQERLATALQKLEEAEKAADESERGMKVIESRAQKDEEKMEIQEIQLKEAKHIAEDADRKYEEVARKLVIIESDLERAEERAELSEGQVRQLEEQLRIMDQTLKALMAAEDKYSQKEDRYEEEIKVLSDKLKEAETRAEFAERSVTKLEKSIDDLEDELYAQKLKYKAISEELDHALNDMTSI

Row | Kd [1] | ratio of Tpm in Ch1 (red, AF568)/Ch2 (green, AF488) on the filament, median [2] | ratio of Tpm in Ch1 (red, AF568)/Ch2 (green, AF488) on the filament, median [3] | Substance
1 | 440 nM | – | – | Tpm1.6 (Tm2), unlabeled recombinant human cytoskeletal tropomyosin (natural protein; modification not given)
2 | 170 nM | – | – | Tpm1.1 AF488 (Tpm1.1 labeled at Cys-190 with Alexa Fluor 488 C5 maleimide) (natural protein)
3 | 640 nM | – | – | Tpm1.1 (αTm), unlabeled recombinant rat skeletal/cardiac muscle tropomyosin (natural protein)
4 | 240 nM | 0.9 | 0.9 | Tpm1.1 AF568 (Tpm1.1 labeled at Cys-190 with Alexa Fluor 568 C5 maleimide) (natural protein)
